In the supplement of paper PMC6757056:
± gives the standard deviation of the averaged measurements.

B1: library; a variant is named by its letters at N, in order (parent)
chain: GCUGUCACCGGUGCUUGGUACGUUAUAUUCAGCCGGUCUGAUGAGUCUNNNNNNAGACGAAACAGC

Columns and labels:
[1] = variants of: B1; assay: FACS-Seq fitted mean relative fluorescence mCherry/BFP without ligand (log10 relative fluorescence); HEK293T overexpressing SLC46A1; higher = higher reporter protein expression; conditions: without (6R,S)-folinic acid; ligand present: no
Method in brief: (§1)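 Reporter cells were enriched HEK293T libraries transduced by lentivirus with mCherry behind the ribozyme switch and with an EF1α-BFP marker. Following 48 h with or without ligand, they were sorted into 6 mCherry/BFP bins, and bin genomic DNA was PCR-amplified, barcoded and MiSeq-sequenced. Fluorescence was computed as the fitted normal mean of the bin counts. The fit used log10(mCherry/BFP), with scaling to five spiked-in control ribozymes.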

[2] = variants of: B1; assay: normalized RNA/DNA level without ligand (relative to sTRSVctl = 100) (log10 (% of sTRSVctl)); HEK293T overexpressing SLC46A1; higher = less ribozyme self-cleavage, higher mRNA level; conditions: without (6R,S)-folinic acid; ligand present: no
Method in brief: (§2)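 HEK293T cells were transfected with library plasmids carrying ribozyme switches linked to an mCherry reporter, or an eGFP reporter in some ligand experiments, at 4 µg per well of a 6-well plate, with any ligand added 1 h beforehand. After 72 h, total RNA was extracted with EDTA, reverse-transcribed, amplified, barcoded and sequenced. RNA level was defined as RNA reads over DNA reads, normalized to a spiked-in non-cleaving sequence or to the top-ranked sequences. That value was multiplied by 100 and converted to log10, the top set was 25 sequences, and only sequences with ≥100 DNA reads were retained.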

[3] = variants of: B1; assay: FACS-Seq fitted mean relative fluorescence mCherry/BFP with ligand (log10 relative fluorescence); HEK293T overexpressing SLC46A1; ligand concentration (+) FACS-Seq: 6 mM; higher = higher reporter protein expression; conditions: with (6R,S)-folinic acid; ligand present: yes
Method in brief: as §1

[4] = variants of: B1; assay: normalized RNA/DNA level with ligand (relative to sTRSVctl = 100) (log10 (% of sTRSVctl)); HEK293T overexpressing SLC46A1; ligand concentration (+) RNA-Seq: 6 mM; higher = less ribozyme self-cleavage, higher mRNA level; conditions: with (6R,S)-folinic acid; ligand present: yes
Method in brief: as §2

Row | Variant | FACS-Seq fitted mean (log10) [1] | normalized RNA/DNA level without ligand (log10) [2] | FACS-Seq fitted mean (log10) [3] | normalized RNA/DNA level with ligand (log10) [4]
1 | GCUGUCACCGGUGCUUGGUACGUUAUAUUCAGCCGGUCUGAUGAGUCUGAUUCAAGACGAAACAGC [GAUUCA] | 0.437 ± 0.14 | 1.985 ± 0.0095 | 0.333 ± 0.013 | 2.01 ± 0.025
2 | GCUGUCACCGGUGCUUGGUACGUUAUAUUCAGCCGGUCUGAUGAGUCUGAUUCUAGACGAAACAGC [GAUUCU] | 0.0461 ± 0.007 | 2.015 ± 0.0091 | -0.0821 ± 0.066 | 2.04 ± 0.042
3 | GCUGUCACCGGUGCUUGGUACGUUAUAUUCAGCCGGUCUGAUGAGUCUGAUUGAAGACGAAACAGC [GAUUGA] | 0.422 ± 0.12 | 1.999 ± 0.019 | 0.519 ± 0.3 | 2.02 ± 0.048
4 | GCUGUCACCGGUGCUUGGUACGUUAUAUUCAGCCGGUCUGAUGAGUCUAAUUGAAGACGAAACAGC [AAUUGA] | 0.309 ± 0.021 | 1.966 ± 0.0098 | 0.358 ± 0.11 | 2 ± 0.0091
5 | GCUGUCACCGGUGCUUGGUACGUUAUAUUCAGCCGGUCUGAUGAGUCUUAUUGAAGACGAAACAGC [UAUUGA] | 0.265 ± 0.09 | 1.91 ± 0.025 | 0.57 ± 0.12 | 1.985 ± 0.003
6 | GCUGUCACCGGUGCUUGGUACGUUAUAUUCAGCCGGUCUGAUGAGUCUAAUUGGAGACGAAACAGC [AAUUGG] | 0.112 ± 0.046 | 1.93 ± 0.024 | 0.122 ± 0.064 | 2 ± 0.022
7 | GCUGUCACCGGUGCUUGGUACGUUAUAUUCAGCCGGUCUGAUGAGUCUUAUUGGAGACGAAACAGC [UAUUGG] | -0.0117 ± 0.013 | 1.59 ± 0.037 | 0.338 ± 0.024 | 1.91 ± 0.034
8 | GCUGUCACCGGUGCUUGGUACGUUAUAUUCAGCCGGUCUGAUGAGUCUGAUUGUAGACGAAACAGC [GAUUGU] | 0.143 ± 0.011 | 1.995 ± 0.0038 | 0.365 ± 0.11 | 2.024 ± 0.0059
9 | GCUGUCACCGGUGCUUGGUACGUUAUAUUCAGCCGGUCUGAUGAGUCUAAUUGUAGACGAAACAGC [AAUUGU] | 0.0241 ± 0.064 | 1.949 ± 0.019 | 0.334 ± 0.097 | 1.98 ± 0.032
10 | GCUGUCACCGGUGCUUGGUACGUUAUAUUCAGCCGGUCUGAUGAGUCUGAUUUAAGACGAAACAGC [GAUUUA] | 0.4 ± 0.091 | 2.024 ± 0.019 | 0.664 ± 0.15 | 2.03 ± 0.021
11 | GCUGUCACCGGUGCUUGGUACGUUAUAUUCAGCCGGUCUGAUGAGUCUUAUUUCAGACGAAACAGC [UAUUUC] | 0.248 ± 0.026 | 2.029 ± 0.0031 | 0.208 ± 0.2 | 2.01 ± 0.054
12 | GCUGUCACCGGUGCUUGGUACGUUAUAUUCAGCCGGUCUGAUGAGUCUCAUUUGAGACGAAACAGC [CAUUUG] | 0.428 ± 0.042 | 2.05 ± 0.0064 | 0.431 ± 0.069 | 2.06 ± 0.025
13 | GCUGUCACCGGUGCUUGGUACGUUAUAUUCAGCCGGUCUGAUGAGUCUAAUUUGAGACGAAACAGC [AAUUUG] | 0.443 ± 0.039 | 1.952 ± 0.016 | 0.374 ± 0.038 | 2.02 ± 0.024
14 | GCUGUCACCGGUGCUUGGUACGUUAUAUUCAGCCGGUCUGAUGAGUCUUAUUUGAGACGAAACAGC [UAUUUG] | 0.00681 ± 0.018 | 1.82 ± 0.02 | 0.373 ± 0.0088 | 1.976 ± 0.017
15 | GCUGUCACCGGUGCUUGGUACGUUAUAUUCAGCCGGUCUGAUGAGUCUCAUUUUAGACGAAACAGC [CAUUUU] | 0.383 ± 0.084 | 1.982 ± 0.015 | 0.284 ± 0.047 | 1.99 ± 0.043
16 | GCUGUCACCGGUGCUUGGUACGUUAUAUUCAGCCGGUCUGAUGAGUCUAAUUUUAGACGAAACAGC [AAUUUU] | 0.217 ± 0.14 | 2.04 ± 0.029 | 0.309 ± 0.3 | 2.01 ± 0.025
17 | GCUGUCACCGGUGCUUGGUACGUUAUAUUCAGCCGGUCUGAUGAGUCUUAUUUUAGACGAAACAGC [UAUUUU] | 0.372 ± 0.078 | 2.006 ± 0.0046 | 0.24 ± 0.13 | 2.02 ± 0.058
18 | GCUGUCACCGGUGCUUGGUACGUUAUAUUCAGCCGGUCUGAUGAGUCUCCAAAAAGACGAAACAGC [CCAAAA] | 0.502 ± 0.074 | 1.971 ± 0.0043 | 0.496 ± 0.19 | 1.96 ± 0.022
19 | GCUGUCACCGGUGCUUGGUACGUUAUAUUCAGCCGGUCUGAUGAGUCUGCAAAAAGACGAAACAGC [GCAAAA] | 0.327 ± 0.023 | 1.989 ± 0.0033 | 0.174 ± 0.032 | 2 ± 0.051
20 | GCUGUCACCGGUGCUUGGUACGUUAUAUUCAGCCGGUCUGAUGAGUCUUCAAAAAGACGAAACAGC [UCAAAA] | 0.0137 ± 0.17 | 1.944 ± 0.012 | 0.0601 ± 0.04 | 1.99 ± 0.046
21 | GCUGUCACCGGUGCUUGGUACGUUAUAUUCAGCCGGUCUGAUGAGUCUACAAACAGACGAAACAGC [ACAAAC] | 0.439 ± 0.018 | 2.03 ± 0.025 | 0.419 ± 0.038 | 2.02 ± 0.043
